According to the supplement of paper PMC9170038:

Tested on: MS2 coat protein
Assay: apparent KD of MS2 coat protein; designed switch direction (-1 OFF switch, 1 ON switch): -1; higher = weaker reporter binding
Procedure, shortened: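 Designed RNA switches were transcribed on Illumina chips by stalled E. coli RNA polymerase and titrated with SNAP-549-labelled MS2 coat protein from 0.7 or 1.5 nM, doubling to 3 µM. Step length ran from 0.8–1.5 h at the lowest concentration to 10–20 min at the highest. The apparent KD is the median over clusters for each design, from curve-fitted normalised cluster fluorescence.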

[1] = Eterna round: R95, input ligand: FMN 200 uM
[2] = Eterna round: R95, input ligand: microRNA oligo, concentration not stated
[3] = Eterna round: R95, input ligand: none
[4] = input ligand: microRNA oligo, concentration not stated

UAACUGCUCGUCUUGUUAAACAUGAGGAUCACCCAUGUCAGCCUGUAAGGGUACGGUAGAUAGGCCCGAUUGCAUGA [Eternabot (L1) Solution 11] (Eterna round: R97, puzzle: Sensor, turn-off variant 1)
apparent KD of MS2 coat protein (input ligand: FMN 200 uM): 26.9 nM | apparent KD of MS2 coat protein (input ligand: none): 31.2 nM

CGUUGGCGAGGAUAUACAUGAGGAUCACCCAUGUGAGAGAAAAAAGUGAGGAAGAAAAGUAGAAGGCGCUGACC [salish99_ex3_r3_049] (puzzle: Exclusion 3)
apparent KD of MS2 coat protein [1]: 110 nM | apparent KD of MS2 coat protein [2]: 42.7 nM | apparent KD of MS2 coat protein [3]: 45.9 nM

AAGCGACGAGGAUAUCGGUGGCUGAACAUGAGGAUCACCCAUGUGAACCGAUGGCAGUGUCGAGAAGGUGUUGAGU [Teceenla] (puzzle: Exclusion 5)
apparent KD of MS2 coat protein [2]: 12.3 nM

UGCUACGGAGGAUAUACAUGAGGAUCACCCAUGUGUGAGAUUAGGCCGAGAGGCCAAUGUAGAAGGCCGUAGCU [jl-ex3-4.21 jl mod] (Eterna round: R97, puzzle: Exclusion 3)
apparent KD of MS2 coat protein (input ligand: FMN 200 uM): 339 nM | apparent KD of MS2 coat protein (input ligand: none): 282 nM

GUCUCACAUGAGGAUCACCCAUGUGAGGAUAUGGUUUCGCUGGCCGUAGCCAGUGGAACCAGAAGGCGCAUGAU [Mat - Exclusion 1 - JL Mod - D3] (Eterna round: R97, puzzle: Exclusion 1)
apparent KD of MS2 coat protein (input ligand: FMN 200 uM): 24.7 nM | apparent KD of MS2 coat protein (input ligand: none): 23 nM

CUUGUGUGAGGAUAUGCGUAGGCAGUAAGUAAGUAGCCGGAGCAGAAGGCACAUGAGGAUCACCCAUGUGUUAC [EX4 B.1] (Eterna round: R97, puzzle: Exclusion 4)
apparent KD of MS2 coat protein (input ligand: FMN 200 uM): 121 nM | apparent KD of MS2 coat protein (input ligand: none): 72.6 nM

AACAAACAUGAGGAUCACCCAUGUGAGGAUAUGCAACAAAACAAAACAAAACAAAACAGCAGAAGGCACACAAC [A-G Solution By Eric] (puzzle: Exclusion 1)
apparent KD of MS2 coat protein [1]: 17.2 nM | apparent KD of MS2 coat protein [2]: 19.2 nM | apparent KD of MS2 coat protein [3]: 14.6 nM

AUAAAAUGCCAAGGAUAUCGGAAAGGAAGUGUACGAGAAGGUGGAGAUCCUAUACAUGAGGAUCACCCAUGUAUCAAGCUUGGG [PowerStrip EXNG 1.10] (Eterna round: R96, puzzle: Exclusion NG 1)
apparent KD of MS2 coat protein (input ligand: FMN 200 uM): 692 nM | apparent KD of MS2 coat protein [4]: 510 nM | apparent KD of MS2 coat protein (input ligand: none): 760 nM

AGCAGACGAGGAUAUAAACGAUAUAACAUGAGGAUCACCCAUGUACGAUCGAAUGAUCGUUUAGAAGGCGUCUGCU [E5/10-A2] (Eterna round: R97, puzzle: Exclusion 5)
apparent KD of MS2 coat protein (input ligand: FMN 200 uM): 17.3 nM | apparent KD of MS2 coat protein (input ligand: none): 15.1 nM

CGCUGGACAGGAUAUGUUCUUGGGCACUUGAGGAUCACCCAAGUCAUCGGGACAACAGGCACAGAAGGGUUUAUGG [salish99_ex5_r4_025] (Eterna round: R97, puzzle: Exclusion 5)
apparent KD of MS2 coat protein (input ligand: FMN 200 uM): 31.6 nM | apparent KD of MS2 coat protein (input ligand: none): 43.9 nM

ACCCAACAUGAGGAUCACCCAUGUCAGGAUAUCCAUCACUAUCACGAAAGGAUAGGAUGGAGAAGGGACAGAGG [ChP 04-04-2015 #3] (puzzle: Exclusion 1)
apparent KD of MS2 coat protein [1]: 325 nM | apparent KD of MS2 coat protein [2]: 99.8 nM | apparent KD of MS2 coat protein [3]: 158 nM

UGGAAGUGAGGAUAUCCAAUAUAUGACAUGAGGAUCACCCAUGUUUCCACUCGUACCUCCGGAGAAGGCACAAGGU [Ex5 #56] (Eterna round: R97, puzzle: Exclusion 5)
apparent KD of MS2 coat protein (input ligand: FMN 200 uM): 56.5 nM | apparent KD of MS2 coat protein (input ligand: none): 57.3 nM

CGGUACUGAGGAUAUACAUGAGGAUCACCCAUGUGUUCCAGCUAGCGUACUGGCAUUAGUAGAAGGCGGUGCUG [JL-ex3-3.17 Brourd mod] (puzzle: Exclusion 3)
apparent KD of MS2 coat protein [1]: 31.4 nM | apparent KD of MS2 coat protein [2]: 12.8 nM | apparent KD of MS2 coat protein [3]: 14.3 nM

UUAAAUCAUGUAGGAUAUGCGUGGCGAAGCUAUGCAGAAGGACAUGAGGAUCACCCAUGUUCCUGCGUCCGCGUACGGAUGCAA [JL Eng1 1.21 mod] (Eterna round: R96, puzzle: Exclusion NG 1)
apparent KD of MS2 coat protein (input ligand: FMN 200 uM): 167 nM | apparent KD of MS2 coat protein [4]: 16.3 nM | apparent KD of MS2 coat protein (input ligand: none): 18.1 nM

ACUUAUAGAGGAUAUACAGUUAAUUACAUGAGGAUCACCCAUGUUCUUCAAUGUAUAUAAGUAGAAGGCAAAGGAA [Mat - Exclusion 5 - Eli Mod - D3] (Eterna round: R97, puzzle: Exclusion 5)
apparent KD of MS2 coat protein (input ligand: FMN 200 uM): 23.2 nM | apparent KD of MS2 coat protein (input ligand: none): 16.2 nM

AGCGAAUAGCUAGGAUAUGAGAAUAGAUAGAGCUCAGAAGGAGCACAUGAGGAUCACCCAUGUGAAGUCUUGAGGCUGCGUGGU [Prohibition 17 - Jieux - Exclusion NG 1] (Eterna round: R96, puzzle: Exclusion NG 1)
apparent KD of MS2 coat protein (input ligand: FMN 200 uM): 20.8 nM | apparent KD of MS2 coat protein [4]: 14.7 nM | apparent KD of MS2 coat protein (input ligand: none): 18.8 nM

UUUUUGUCAGGAUAUGACUAGAUGCACGUUAGUGUAUUUACUUAGAAGGGACAUGAGGAUCACCCAUGUAUUCC [Bring Us a Shrubbery-13] (puzzle: Exclusion 4)
apparent KD of MS2 coat protein [2]: 26.2 nM

CCAAGCUUAUUCAUUAACAACAUGAGGAUCACCCAUGUAUAGGCAAUUAUGACUGGGCUCUUUAGUGCUCGUCUUAU [Sensor-V1 #25] (Eterna round: R97, puzzle: Sensor, turn-off variant 1)
apparent KD of MS2 coat protein (input ligand: FMN 200 uM): 16.2 nM | apparent KD of MS2 coat protein (input ligand: none): 14.7 nM

AGGGAUAAAGGAUAUACAUGAGGAUCACCCAUGUUGAGGAAAGUGAGAUGAGGAGGAAGUAGAAGGUUAGGCGG [JR_Exclu3_Sub084] (puzzle: Exclusion 3)
apparent KD of MS2 coat protein [1]: 35.7 nM | apparent KD of MS2 coat protein [2]: 33.9 nM | apparent KD of MS2 coat protein [3]: 31.4 nM

UUAUACAAGCAAAGAUCCCACAUGAGGAUCACCCAUGUGCUCGUCUUAUAAGGAACUGUGACGAAAGUCACGGUUCC [Mat - Sensor, turn-off var - Eli Mod - D100] (Eterna round: R97, puzzle: Sensor, turn-off variant 1)
apparent KD of MS2 coat protein (input ligand: FMN 200 uM): 36.2 nM | apparent KD of MS2 coat protein (input ligand: none): 37.2 nM

AUUAUAUAGACAGGAUAUUGAUUAUUAUUUUAACAUGAGGAUCACCCAUGUAACCUUAUGUGUAGCAAGAAGGGUCAUUUAUUA [Title] (Eterna round: R96, puzzle: Exclusion NG 2)
apparent KD of MS2 coat protein [4]: 81.8 nM

CCUCUACAUGAGGAUCACCCAUGUGAGGAUAUGCGAGGCGCACUCGAUGAGCGCGCCGGUAGAAGGCAUGUGGU [Raraveries] (Eterna round: R96, puzzle: Exclusion 1)
apparent KD of MS2 coat protein (input ligand: FMN 200 uM): 67 nM | apparent KD of MS2 coat protein [4]: 29.8 nM | apparent KD of MS2 coat protein (input ligand: none): 41.9 nM

AACUAGGCAGGAUAUACAUGAGGAUCACCCAUGUGCCAAUACAAAGGGACUAACAGAGGUAGAAGGGCCUAGAA [ChP 13.04.2015 #2] (puzzle: Exclusion 3)
apparent KD of MS2 coat protein [1]: 155 nM | apparent KD of MS2 coat protein [2]: 36.8 nM | apparent KD of MS2 coat protein [3]: 34.3 nM

UUUAAGUCAGGAUAUACAUGAGGAUCACCCAUGUAAAAUUUUAAUUUAAUUUUAAGGUGUAGAAGGGACAAUUU [Ex3 #3] (Eterna round: R97, puzzle: Exclusion 3)
apparent KD of MS2 coat protein (input ligand: FMN 200 uM): 29.5 nM | apparent KD of MS2 coat protein (input ligand: none): 34.9 nM

AGGGAGCGAGGAUAUACAGAGUAGGAAACCACUCCCUCAGUACAUGAGGAUCACCCAUGUAGAAGGCGCCCGAA [EX2 A.8] (Eterna round: R97, puzzle: Exclusion 2)
apparent KD of MS2 coat protein (input ligand: FMN 200 uM): 39.2 nM | apparent KD of MS2 coat protein (input ligand: none): 31.5 nM

AGAUGUACCUAGGAUAUCCGUCGAAUUGGACUAGGAGAAGGAGGUACAUGAGGAUCACCCAUGUAUGACUCCUG [Bemabice] (puzzle: Exclusion 6)
apparent KD of MS2 coat protein [2]: 10.1 nM
